The record followed here is article doi:10.1101/774737.

The assay addresses dynein intermediate chain (DIC), endogenous, human iPSC-derived motor neurons (human (endogenous in iPSC-derived motor neurons)) (UniProt O14576). Kind of assay: proximity ligation.
Sequence of UniProt O14576 (O14576 whole entry): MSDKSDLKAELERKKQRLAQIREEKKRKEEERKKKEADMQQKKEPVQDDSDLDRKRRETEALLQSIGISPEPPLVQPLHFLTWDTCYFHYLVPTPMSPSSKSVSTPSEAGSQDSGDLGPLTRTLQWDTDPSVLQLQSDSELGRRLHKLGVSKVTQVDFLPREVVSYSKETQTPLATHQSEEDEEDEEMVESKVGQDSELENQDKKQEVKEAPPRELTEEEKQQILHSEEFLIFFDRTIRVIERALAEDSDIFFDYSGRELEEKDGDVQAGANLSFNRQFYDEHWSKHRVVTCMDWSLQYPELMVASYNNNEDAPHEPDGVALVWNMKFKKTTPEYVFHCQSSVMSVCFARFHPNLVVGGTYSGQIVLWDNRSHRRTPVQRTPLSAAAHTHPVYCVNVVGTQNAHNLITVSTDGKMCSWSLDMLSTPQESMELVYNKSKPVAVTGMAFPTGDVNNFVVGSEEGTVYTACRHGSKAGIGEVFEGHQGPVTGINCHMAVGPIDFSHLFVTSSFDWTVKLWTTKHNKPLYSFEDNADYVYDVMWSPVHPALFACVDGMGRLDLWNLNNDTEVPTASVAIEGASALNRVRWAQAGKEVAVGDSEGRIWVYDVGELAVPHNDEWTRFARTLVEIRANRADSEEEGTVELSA

As for “CRMP4, endogenous, human iPSC-derived motor neurons (from UniProt Q14195 1-570) (natural protein)”, the PLA puncta (C9orf72 iPSC-derived MN distal axons, without peptides) was 8.9.
